Measurements taken from doi:10.1101/2024.04.27.591446 (bioRxiv, 2024).

Columns and labels:
SARS-CoV-2 RBD WU1 = SARS-CoV-2 RBD WU1 (SARS-CoV-2 Wuhan-Hu-1, UniProt P0DTC2); test: SPR
SARS-CoV1 Spike = SARS-CoV1 Spike (SARS-CoV, strain  (P59594 …, UniProt P59594)); test: ELISA

B1: 1301B7 recombinant human monoclonal antibody (hmAb), IgG1 (antibody, V domains shown)
VH: EVQLVESGAEVKNPGSSVKVSCKASEGTFGSYPIIWVRQAPGQGLEWVGGIIPILGTVIYAQKFQGRVTITGDTYAGSAHMELSGLRSEDTAVFYCARGSYDYGDRLLNYTYYAMDVWGPGTTVTVSS
VL: QPGLTQPPSVSGAPGQRVTISCTGSRSNIGAVYAVHWYQHVPGAAPKLLIYENNNRPSGIPDRFSGSKSGTSASLVITGLQAEDEADYLCQSYDRSVGVVFGGGTRLTVL
- binding result (SARS-CoV-2 RBD WU1): binds
- binding result (SARS-CoV1 Spike): binds
